Source: the supplement of paper PMC11811203

B1: THAP1; numbered along this chain (parent)
chain: MVQSCSAYGCKNRYDKDKPVSFHKFPLTRPSLCKEWEAAVRRKNFKPTKYSSICSEHFTPDCFKRECNNKLLKENAVPTIFLCTEPHDKKEDLLEPQEQLPPPPLPPPVSQVDAAIGLLMPPLQTPVNLSVFCDHNYTVEDTMHQRKRIHQLEQQVEKLRKKLKTAQQRCRRQERQLEKLKEVVHFQKEKDDVSERGYVILPNDYFEIVEVPA

Variants of: B1
Assay: THAP1 transcriptional activity (GFP+/GFP- enrichment relative to wild-type constructs) (ratio to WT); higher = more THAP1 activity (PSMB5 reporter activation)
Conditions: with PSMB5 promoter-GFP reporter
How it was run: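 In duplicate, a lentivirus-delivered library with every residue from 2–213 of human THAP1 changed to all 20 amino acids was introduced at MOI ~0.3 into THAP1-knockout HEK-293T cells carrying endogenous PSMB5 tagged by mClover3 knock-in. Five days on, BFP+ cells were binned as GFP-dim or GFP-bright, and Illumina sequencing of genomic DNA amplicons counted each variant. Activity is the bright/dim read fold change, averaged over replicates and scaled to the mean of wild-type synonymous constructs.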

First: MVQSCSAYGCKNRYDKDKPVSFHKFPLTRPSLCKEWEAAVRRKNFKPTKYSSICSEHFTPDCFKRECNNKLLKENAVPTIFLCTEPHDKKEDLLEPQEQLPPPPLPPPVSQVDAAIGLLMPPLQTDVNLSVFCDHNYTVEDTMHQRKRIHQLEQQVEKLRKKLKTAQQRCRRQERQLEKLKEVVHFQKEKDDVSERGYVILPNDYFEIVEVPA [P126D]
Second: MVQSCSAYGCKNRYDKDKPVSFHKFPLTRPSLCKEWEAAVRRKNFKPTKYSSICSEHFTPDCFKRECNNKLLKENAVPTIFLCTEPHDKKEDLLEPQEQLPPPPLPPPVSQVDAAIGLLMPPLQTLVNLSVFCDHNYTVEDTMHQRKRIHQLEQQVEKLRKKLKTAQQRCRRQERQLEKLKEVVHFQKEKDDVSERGYVILPNDYFEIVEVPA [P126L]
The THAP1 transcriptional activity of the first is higher: 1.02 for the first, 0.216 for the second.

First: MVQSCSAYGCKNRYDKDKPVSFHKFPLTRPSLCKEWEAAVRRKNFKPTKYSSICSEHFTPDCFKRECNNKLLKENAVPTIFLCTEPHDKKEDLLEPQEQLPPPPLPPPVSQVDAAIGLLMPPLQTNVNLSVFCDHNYTVEDTMHQRKRIHQLEQQVEKLRKKLKTAQQRCRRQERQLEKLKEVVHFQKEKDDVSERGYVILPNDYFEIVEVPA [P126N]
Second: MVQSCSAYGCKNRYDKDKPVSFHKFPLTRPSLCKEWEAAVRRKNFKPTKYSSICSEHFTPDCFKRECNNKLLKENAVPTIFLCTEPHDKKEDLLEPQEQLPPPPLPPPVSQVDAAIGLLMPPLQTRVNLSVFCDHNYTVEDTMHQRKRIHQLEQQVEKLRKKLKTAQQRCRRQERQLEKLKEVVHFQKEKDDVSERGYVILPNDYFEIVEVPA [P126R]
The THAP1 transcriptional activity of the first is higher: 0.551 for the first, 0.51 for the second.

Compared with MVQSCSAYGCKNRYDKDKPVSFHKFPLTRPSLCKEWEAAVRRKNFKPTKYSSICSEHFTPDCFKRECNNKLLKENAVPTIFLCTEPHDKKEDLLEPQEQLPPPPLPPPVSQVDAAIGLLMPPLQTGVNLSVFCDHNYTVEDTMHQRKRIHQLEQQVEKLRKKLKTAQQRCRRQERQLEKLKEVVHFQKEKDDVSERGYVILPNDYFEIVEVPA [P126G], MVQSCSAYGCKNRYDKDKPVSFHKFPLTRPSLCKEWEAAVRRKNFKPTKYSSICSEHFTPDCFKRECNNKLLKENAVPTIFLCTEPHDKKEDLLEPQEQLPPPPLPPPVSQVDAAIGLLMPPLQTSVNLSVFCDHNYTVEDTMHQRKRIHQLEQQVEKLRKKLKTAQQRCRRQERQLEKLKEVVHFQKEKDDVSERGYVILPNDYFEIVEVPA [P126S] is higher in THAP1 transcriptional activity: 0.386 for the first, 1.11 for the second.

Compared with MVQSCSAYGCKNRYDKDKPVSFHKFPLTRPSLCKEWEAAVRRKNFKPTKYSSICSEHFTPDCFKRECNNKLLKENAVPTIFLCTEPHDKKEDLLEPQEQLPPPPLPPPVSQVDAAIGLLMPPLQTHVNLSVFCDHNYTVEDTMHQRKRIHQLEQQVEKLRKKLKTAQQRCRRQERQLEKLKEVVHFQKEKDDVSERGYVILPNDYFEIVEVPA [P126H], MVQSCSAYGCKNRYDKDKPVSFHKFPLTRPSLCKEWEAAVRRKNFKPTKYSSICSEHFTPDCFKRECNNKLLKENAVPTIFLCTEPHDKKEDLLEPQEQLPPPPLPPPVSQVDAAIGLLMPPLQTCVNLSVFCDHNYTVEDTMHQRKRIHQLEQQVEKLRKKLKTAQQRCRRQERQLEKLKEVVHFQKEKDDVSERGYVILPNDYFEIVEVPA [P126C] is lower in THAP1 transcriptional activity: 0.531 for the first, 0.294 for the second.

First: MVQSCSAYGCKNRYDKDKPVSFHKFPLTRPSLCKEWEAAVRRKNFKPTKYSSICSEHFTPDCFKRECNNKLLKENAVPTIFLCTEPHDKKEDLLEPQEQLPPPPLPPPVSQVDAAIGLLMPPLQTKVNLSVFCDHNYTVEDTMHQRKRIHQLEQQVEKLRKKLKTAQQRCRRQERQLEKLKEVVHFQKEKDDVSERGYVILPNDYFEIVEVPA [P126K]
Second: MVQSCSAYGCKNRYDKDKPVSFHKFPLTRPSLCKEWEAAVRRKNFKPTKYSSICSEHFTPDCFKRECNNKLLKENAVPTIFLCTEPHDKKEDLLEPQEQLPPPPLPPPVSQVDAAIGLLMPPLQTIVNLSVFCDHNYTVEDTMHQRKRIHQLEQQVEKLRKKLKTAQQRCRRQERQLEKLKEVVHFQKEKDDVSERGYVILPNDYFEIVEVPA [P126I]
The THAP1 transcriptional activity of the first is higher: 0.562 for the first, 0.18 for the second.

First: MVQSCSAYGCKNRYDKDKPVSFHKFPLTRPSLCKEWEAAVRRKNFKPTKYSSICSEHFTPDCFKRECNNKLLKENAVPTIFLCTEPHDKKEDLLEPQEQLPPPPLPPPVSQVDAAIGLLMPPLQTEVNLSVFCDHNYTVEDTMHQRKRIHQLEQQVEKLRKKLKTAQQRCRRQERQLEKLKEVVHFQKEKDDVSERGYVILPNDYFEIVEVPA [P126E]
Second: MVQSCSAYGCKNRYDKDKPVSFHKFPLTRPSLCKEWEAAVRRKNFKPTKYSSICSEHFTPDCFKRECNNKLLKENAVPTIFLCTEPHDKKEDLLEPQEQLPPPPLPPPVSQVDAAIGLLMPPLQTQVNLSVFCDHNYTVEDTMHQRKRIHQLEQQVEKLRKKLKTAQQRCRRQERQLEKLKEVVHFQKEKDDVSERGYVILPNDYFEIVEVPA [P126Q]
The THAP1 transcriptional activity of the first is lower: 0.744 for the first, 0.962 for the second.

Compared with MVQSCSAYGCKNRYDKDKPVSFHKFPLTRPSLCKEWEAAVRRKNFKPTKYSSICSEHFTPDCFKRECNNKLLKENAVPTIFLCTEPHDKKEDLLEPQEQLPPPPLPPPVSQVDAAIGLLMPPLQTFVNLSVFCDHNYTVEDTMHQRKRIHQLEQQVEKLRKKLKTAQQRCRRQERQLEKLKEVVHFQKEKDDVSERGYVILPNDYFEIVEVPA [P126F], MVQSCSAYGCKNRYDKDKPVSFHKFPLTRPSLCKEWEAAVRRKNFKPTKYSSICSEHFTPDCFKRECNNKLLKENAVPTIFLCTEPHDKKEDLLEPQEQLPPPPLPPPVSQVDAAIGLLMPPLQTAVNLSVFCDHNYTVEDTMHQRKRIHQLEQQVEKLRKKLKTAQQRCRRQERQLEKLKEVVHFQKEKDDVSERGYVILPNDYFEIVEVPA [P126A] is higher in THAP1 transcriptional activity: 0.178 for the first, 0.618 for the second.
